How the values were obtained:
[1] = target: T1, mouse IL1RAP ECD displayed on HEK-293F cells (pDisplay) (mouse, UniProt Q61730 21-367); test: MSD cell binding, HEK-293F Mouse clone 5 cells displaying mouse IL1RAP ECD
T1 sequence: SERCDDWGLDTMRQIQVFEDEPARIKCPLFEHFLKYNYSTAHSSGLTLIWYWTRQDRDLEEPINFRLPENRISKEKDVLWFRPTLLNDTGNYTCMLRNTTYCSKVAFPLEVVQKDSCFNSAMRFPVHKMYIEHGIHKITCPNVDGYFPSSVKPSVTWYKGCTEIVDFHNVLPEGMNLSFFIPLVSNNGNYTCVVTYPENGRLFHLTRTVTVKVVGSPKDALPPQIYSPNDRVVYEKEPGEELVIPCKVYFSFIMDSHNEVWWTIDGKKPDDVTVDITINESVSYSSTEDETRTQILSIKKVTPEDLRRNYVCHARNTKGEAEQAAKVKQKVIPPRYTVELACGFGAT
Method: (§1) Cells were immobilized and IL1RAP antibody samples were assayed in triplicate. Briefly, expression supernatants of purified IL1RAP antibodies were normalized to 10 μg/mL. 5000 cells per well were plated into a 384 well plate (MA6000, cat. L21XB, MSD) and allowed to adhere for 2 hr. Cells were then blocked with 20% FBS in PBS (Gibco) for 15 mins. Antibody supernatants were then added and left at RT for 1 hr. Cells were washed 3 times with PBS and a ruthenium labeled secondary antibody (Mesoscale Discovery) was then added at 2 μg/mL and incubated for 1 hour at room temperature. A further washing step was then applied and 35 μL per well of 2×MSD Read buffer T (surfactant free) was then added and incubated for 5-30 minutes for detection. Plates were then read using Sector Imager 2400 (MSD). Data was normalized to controls and graphed using GraphPad Prism Version 5. A positive binder was determined to be a hit with a signal 3× greater than parental cell line background.
(§2) The MSD cell binding assay described in Example 4 was used to assess IL1RAP binding.

[2] = target: T2, human IL1RAP ECD displayed on HEK-293F cells (pDisplay) (human, UniProt Q9NPH3 21-367); test: MSD cell binding, HEK-293F Human (clone HE2) cells displaying human IL1RAP ECD
T2 construct: also called Human clone HE2 IL1RAP FL-ECD cell line
T2 sequence: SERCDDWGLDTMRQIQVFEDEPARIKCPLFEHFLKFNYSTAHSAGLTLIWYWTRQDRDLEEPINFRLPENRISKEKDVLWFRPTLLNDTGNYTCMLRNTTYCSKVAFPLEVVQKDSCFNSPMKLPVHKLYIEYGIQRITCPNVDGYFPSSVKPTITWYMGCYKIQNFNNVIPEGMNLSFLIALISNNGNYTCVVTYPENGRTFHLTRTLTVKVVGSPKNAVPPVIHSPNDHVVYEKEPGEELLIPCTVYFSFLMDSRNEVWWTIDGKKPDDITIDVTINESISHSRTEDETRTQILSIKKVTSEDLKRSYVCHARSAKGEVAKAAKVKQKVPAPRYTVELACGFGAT
Method: as §1, §2

human FcRn = target: T3, human FcRn (human, UniProt P55899 24-297; P61769 21-119, limits assumed); test: AlphaScreen competition, human FcRn (n=1); displaced: biotinylated control mAb B21M WT IgG1 (m27); pH 6.0
T3 construct: GST-tagged
Excerpt: (§3) Measurements were made using an AlphaScreen™ assay (Amplified Luminescent Proximity Homogeneous Assay (ALPHA), PerkinElmer, Wellesley, Mass.), a bead-based luminescent proximity assay. Laser excitation of a donor bead excites oxygen, which if sufficiently close to the acceptor bead generates a cascade of chemiluminescent events, ultimately leading to fluorescence emission at 520-620 nm.

[3] = target: T4, cyno IL1RAP ECD displayed on HEK-293F cells (pDisplay) (cynomolgus monkey, UniProt P59822 21-367 (rhesus entry)); test: MSD cell binding, HEK-293F Cyno (clone CB8) cells displaying cyno IL1RAP ECD
T4 sequence: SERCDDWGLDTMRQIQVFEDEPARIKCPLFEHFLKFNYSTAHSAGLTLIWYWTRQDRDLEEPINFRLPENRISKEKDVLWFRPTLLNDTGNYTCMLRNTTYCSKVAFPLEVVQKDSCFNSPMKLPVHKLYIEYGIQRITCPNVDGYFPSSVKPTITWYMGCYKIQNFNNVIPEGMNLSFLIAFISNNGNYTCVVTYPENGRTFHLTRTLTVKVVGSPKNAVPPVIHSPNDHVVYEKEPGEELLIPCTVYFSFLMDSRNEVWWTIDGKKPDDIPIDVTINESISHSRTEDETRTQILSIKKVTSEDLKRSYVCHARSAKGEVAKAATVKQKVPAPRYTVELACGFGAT
Method: as §1, §2

[4] = target: T5, rat IL1RAP ECD displayed on HEK-293F cells (pDisplay) (rat, UniProt Q63621 21-367); test: MSD cell binding, HEK-293F Rat clone 1 cells displaying rat IL1RAP ECD
T5 sequence: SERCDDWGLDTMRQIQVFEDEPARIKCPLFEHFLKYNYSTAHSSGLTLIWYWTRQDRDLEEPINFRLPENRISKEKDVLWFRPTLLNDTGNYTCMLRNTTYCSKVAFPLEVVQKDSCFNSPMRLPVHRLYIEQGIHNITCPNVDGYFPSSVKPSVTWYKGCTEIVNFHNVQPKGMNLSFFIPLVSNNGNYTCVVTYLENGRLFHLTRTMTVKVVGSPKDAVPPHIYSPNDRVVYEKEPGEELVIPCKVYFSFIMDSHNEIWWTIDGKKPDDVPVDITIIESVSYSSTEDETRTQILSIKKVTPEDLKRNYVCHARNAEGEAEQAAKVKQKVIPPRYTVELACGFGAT
Method: as §1, §2

[5] = target: T6, human IL1RAP on cells (endogenous) (human, UniProt Q9NPH3 21-570); test: cell-based or functional assay
T6 sequence (looked up): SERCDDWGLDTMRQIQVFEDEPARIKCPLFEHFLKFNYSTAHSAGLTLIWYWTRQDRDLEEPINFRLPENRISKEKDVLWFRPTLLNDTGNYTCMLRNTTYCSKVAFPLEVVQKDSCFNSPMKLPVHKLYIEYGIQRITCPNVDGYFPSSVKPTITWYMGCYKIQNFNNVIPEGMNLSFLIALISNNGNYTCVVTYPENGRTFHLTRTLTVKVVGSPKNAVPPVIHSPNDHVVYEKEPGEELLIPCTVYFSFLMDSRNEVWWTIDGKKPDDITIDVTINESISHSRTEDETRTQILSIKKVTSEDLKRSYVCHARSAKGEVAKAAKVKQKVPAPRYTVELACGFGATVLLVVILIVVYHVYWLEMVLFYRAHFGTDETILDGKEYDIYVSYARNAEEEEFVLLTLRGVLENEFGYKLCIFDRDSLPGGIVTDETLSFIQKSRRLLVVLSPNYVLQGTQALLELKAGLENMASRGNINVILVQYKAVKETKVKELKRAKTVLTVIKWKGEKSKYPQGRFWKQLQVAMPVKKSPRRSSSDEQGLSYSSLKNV

human FcγRI = target: T7, human FcγRI (human, UniProt P12314 16-292, limits assumed); test: AlphaScreen competition, human FcγRI (n=1); displaced: biotinylated control mAb B21M hIgG1 AlaAla; pH 7.2
T7 construct: GST-tagged, on glutathione acceptor beads; also called FcγRT [sic]
Excerpt: as §3

[6] = target: T8, recombinant human IL1RAP ECD (human, UniProt Q9NPH3 21-367); test: SPR (ProteOn)
T8 construct: His-tagged; also called hIL1RAP-ECD; rhuIL1RAP
T8 sequence: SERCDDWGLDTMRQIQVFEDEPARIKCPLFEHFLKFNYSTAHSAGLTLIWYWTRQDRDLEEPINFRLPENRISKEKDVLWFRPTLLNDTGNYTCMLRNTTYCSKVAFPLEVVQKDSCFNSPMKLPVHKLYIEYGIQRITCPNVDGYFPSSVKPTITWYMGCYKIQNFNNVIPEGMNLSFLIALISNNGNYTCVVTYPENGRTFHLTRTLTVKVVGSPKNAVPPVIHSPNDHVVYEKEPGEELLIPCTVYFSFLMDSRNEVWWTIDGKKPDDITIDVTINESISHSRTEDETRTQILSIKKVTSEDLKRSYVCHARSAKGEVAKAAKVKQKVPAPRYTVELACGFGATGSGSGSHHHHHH

[7] = target: T8, recombinant human IL1RAP ECD; test: SPR, summary
[8] = target: T8, recombinant human IL1RAP ECD; test: SPR; KD against parent IAPB4

B1: IC3B18 (bispecific antibody, human IgG4 S228P, lambda, F234A L235A)
heavy 1: EVQLVESGGGLVQPGGSLRLSCAASGFTFNTYAMNWVRQAPGKGLEWVARIRSKYNNYATYYAASVKGRFTISRDDSKNSLYLQMNSLKTEDTAVYYCARHGNFGNSYVSWFAYWGQGTLVTVSSASTKGPSVFPLAPCSRSTSESTAALGCLVKDYFPEPVTVSWNSGALTSGVHTFPAVLQSSGLYSLSSVVTVPSSSLGTKTYTCNVDHKPSNTKVDKRVESKYGPPCPPCPAPEAAGGPSVFLFPPKPKDTLMISRTPEVTCVVVDVSQEDPEVQFNWYVDGVEVHNAKTKPREEQFNSTYRVVSVLTVLHQDWLNGKEYKCKVSNKGLPSSIEKTISKAKGQPREPQVYTLPPSQEEMTKNQVSLTCLVKGFYPSDIAVEWESNGQPENNYKTTPPVLDSDGSFLLYSKLTVDKSRWQEGNVFSCSVMHEALHNHYTQKSLSLSLGK
light 1: QTVVTQEPSLTVSPGGTVTLTCRSSTGAVTTSNYANWVQQKPGQAPRGLIGGTNKRAPGTPARFSGSLLGGKAALTLSGVQPEDEAEYYCALWYSNLWVFGGGTKLTVLGQPKAAPSVTLFPPSSEELQANKATLVCLISDFYPGAVTVAWKADSSPVKAGVETTTPSKQSNNKYAASSYLSLTPEQWKSHRSYSCQVTHEGSTVEKTVAPTECS
heavy 2: not shown
light 2: QSALTQPRSVSGSPGHSVTISCTGTSSDVGDYNYVSWYQQRPGKVPKLLIYDVSKRPSGVPDRFSGSKSGNTASLTISGLQAEDEAIYFCASYAGNYNVVFGGGTKLTVLGQPKAAPSVTLFPPSSEELQANKATLVCLISDFYPGAVTVAWKADSSPVKAGVETTTPSKQSNNKYAASSYLSLTPEQWKSHRSYSCQVTHEGSTVEKTVAPTECS
notes: IgG4-PAA, Fab arm exchange; also called IAPB63 x CD3B219; IL1RAP x CD3
binding result [1]: no binding (tested: 100 µg/mL)
EC50 (read off the curve) [2]: ~1 µg/mL
IC50 (read off the curve) (human FcRn): ~200 nM
EC50 (read off the curve) [3]: ~1 µg/mL
binding result [4]: no binding (tested: 100 µg/mL)
Average EC50, SKNO-1 cytotoxicity in whole blood, 24 hour [5]: 2.92 nM
Average EC50, SKNO-1 cytotoxicity in whole blood, 48 hour [5]: 0.804 nM
EC50, SKNO-1 cytotoxicity in whole blood, donor 00201, 24 hour [5]: 8.62 nM
EC50, SKNO-1 cytotoxicity in whole blood, donor 00201, 48 hour [5]: 0.704 nM
EC50, SKNO-1 cytotoxicity in whole blood, donor 00263, 24 hour [5]: 0.4 nM
EC50, SKNO-1 cytotoxicity in whole blood, donor 00263, 48 hour [5]: 0.58 nM
EC50, SKNO-1 cytotoxicity in whole blood, donor 27050, 48 hour [5]: 2.04 nM
EC50, SKNO-1 cytotoxicity in whole blood, donor 27060, 24 hour [5]: 2.5 nM
EC50, SKNO-1 cytotoxicity in whole blood, donor 27060, 48 hour [5]: 0.516 nM
EC50, SKNO-1 cytotoxicity in whole blood, donor 27067, 24 hour [5]: 1.11 nM
EC50, SKNO-1 cytotoxicity in whole blood, donor 27067, 48 hour [5]: 0.337 nM
EC50, SKNO-1 cytotoxicity in whole blood, donor 32771, 24 hour [5]: 1.94 nM
EC50, SKNO-1 cytotoxicity in whole blood, donor 32782, 48 hour [5]: 0.65 nM
IC50 (read off the curve) (human FcγRI): ~90 nM

B2: IAPB65 (antibody, human IgG4 S228P, kappa, F234A L235A, V domains shown)
VH: QVQLVQSGAEVKKPGSSVKVSCKASGGTFSSYAISWVRQAPGQGLEWMGGISAIFGTANYAQKFQGRVTITADESTSTAYMELSSLRSEDTAVYYCARHLHNAIHLDYWGQGTLVTVSS
VL: EIVLTQSPATLSLSPGERATLSCRASQSVSNFLAWYQQKPGQAPRLLIYGASNRATGIPARFSGSGSGTDFTLTISSLEPEDFAVYYCQQGKHWPWTFGQGTKVEIKR
notes: IgG4-PAA; whole chains; also called IAPB4-HC-G103A; IgG4-PAA, B4 mutant
Kd [6]: 10.4 nM
koff [6]: 0.00341 s⁻¹
kon [6]: 329000 M⁻¹ s⁻¹
Kd [7]: 10.4 nM
Fold Different from parent [8]: 2.2 fold

Source: patent US20190270826A1 (Janssen / Centocor, published 2019)
